Source: patent US7838294B2, “Inhibitors of the JNK signal transduction pathway and methods of use” (University of Massachusetts, priority 1997, dated 2010)

Experiments:
JNK2 = biological target: T1, JNK2 (Homo sapiens, UniProt P45984); assay: Co-immunoprecipitation of JIP-1 with JNK2; type: binding; conditions: protein immunoblot
T1 construct: expressed in transfected cells

p38 MAP kinase = biological target: T2, p38 MAP kinase (Homo sapiens, UniProt Q16539); assay: GST-fusion pull-down from cell lysates, Flag immunoblot: p38 MAP kinase; type: binding; conditions: control experiment, Flag-p38 lysate
T2 construct: expressed in transfected cells
T2 sequence (Q16539 whole entry, the tested form may be a part): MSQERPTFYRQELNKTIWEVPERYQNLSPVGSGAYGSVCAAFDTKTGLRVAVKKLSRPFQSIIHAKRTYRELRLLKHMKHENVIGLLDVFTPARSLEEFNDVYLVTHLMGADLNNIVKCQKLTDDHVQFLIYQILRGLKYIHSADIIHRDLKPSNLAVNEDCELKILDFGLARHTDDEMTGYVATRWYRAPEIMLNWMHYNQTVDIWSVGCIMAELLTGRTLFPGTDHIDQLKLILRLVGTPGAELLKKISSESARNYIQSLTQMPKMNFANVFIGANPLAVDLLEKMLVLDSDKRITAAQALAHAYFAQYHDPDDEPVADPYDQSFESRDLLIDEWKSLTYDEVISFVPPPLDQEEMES
Experimental: To test whether JIP-1 binding to JNK is also isoform-dependent, a binding assay was utilized. Cell lysates (1 ml in TLB) containing JNK1, JNK2, or p38 MAP kinase, each tagged with the Flag epitope, were incubated with 5 μg GST-fusion proteins pre-bound to 10 μl glutathione-Sepharose. The GST fusion proteins used contain residues 127-202 (SEQ ID NO:15), 203-281 (SEQ ID NO:16), 164-240 (SEQ ID NO:17), or 127-281 (SEQ ID NO:4) of JIP-1. The GST-ATF2 fusion protein contains residues 1-109 of ATF2, and the GST-Jun fusion protein contains residues 1-79 of c-Jun. After incubation for one hour at 4° C. and three washes with TLB, bound proteins were detected by protein immunoblot analysis with the M2 monoclonal antibody, which is specific for the Flag epitope. Dérijard, et al., supra; Sluss et al., supra; Gupta et al., supra. […] This finding is consistent with the results of previous studies. In contrast, when GST-JIP-1 fusion proteins containing residues 127-202 or 127-281 of JIP-1 were tested in the assay, these proteins bound both JNK1 and JNK2.

[1] = system: ATF2 transcriptional activity; assay: GAL4 luciferase reporter assay in CHO cells: GAL4-ATF2; type: cell-based, Chinese hamster
Experimental: In these experiments, CHO cells were cotransfected with constructs encoding the transcription factors and JIP-1 using previously described methods. Dérijard et al., supra; Sluss et al., supra; Gupta et al., supra. A luciferase reporter plasmid was used to monitor the expression of the transcription factors. Transfection efficiency was determined using a β-galactosidase expression vector. Constructs used in these experiments included GAL4 fusions with the c-myc, Sp1 and VP16 activation domains (described in Whitmarsh et al., Science, 269:403 (1995); Davis, Science, 269:403 (1995); Gille et al., Curr. Biol., 5:1191 (1995)). Other constructs used were GAL4-c-Jun, in which GAL4 is fused to c-Jun; GAL4-c-Jun (S63A/S73A), in which GAL4 is fused to a mutant c-Jun in which the serines at positions 63 and 73 have been changed to alanines; GAL4-ATF2, in which GAL4 is fused to wild type ATF2 (ATF2(Thr-69, 71)); GAL4-ATF2 (T69A/T71A) (ATF2(Ala-69/71)), in which GAL4 has been fused to a mutant ATF2 in which the […] at positions 69 and 71 have been changed to alanines; GAL4-Elk-1, in which GAL4 has been fused to Elk-1; and GAL4-Elk-1 (S383A), in which GAL4 has been fused to a mutant Elk-1 in which the serine at position 383 has been changed to an alanine. Gupta et al., EMBO J, 15:2760-2770 (1996); Raingeaud et al., Mol. Cell. Biol., 16:1247-1255 (1996); Whitmarsh et al. Science, 269:403-407 (1995).
Insertional overlapping PCR, described in detail in Ho, supra, was used to construct expression vectors for the JNK binding domain (JBD; amino acid residues 127-281) of JIP-1 and for a mutant JIP-1 lacking the SH3 (amino acid residues 491-540) domain.
Transfected cells were activated by treatment with 10% (v/v) fetal calf serum, and luciferase and β-galactosidase activities were measured in cell lysates at 48 hours post-transfection. The data are presented as the ratio of luciferase activity (light units) to β-galactosidase activity (OD units) measured in the cell extracts (mean±SEM (n=3)), and are normalized to the luciferase activity detected in the absence of JBD (FIGS. 4A and 4B) or ATF2 (FIG. 4C).

B1: JIP-1: 660 amino acid murine cytoplasmic protein that specifically binds JNK (protein)
chain: MAERESGLGGGAASPPAASPFLGLHIASPPNFRLTHDISLEEFEDEDLSEITDECGISLQCKDTLSLRPPRAGLLSAGSSGSAGSRLQAEMLQMDLIDAAGDTPGAEDDEEEEDDELAAQRPGVGPPKAESNQDPAPRSQGQGPGTGSGDTYRPKRPTTLNLFPQVPRSQDTLNNNSLGKKHSWQDRVSRSSSPLKTGEQTPPHEHICLSDELPPQGSPVPTQDRGTSTDSPCRRSAATQMAPPSGPPATAPGGRGHSHRDRIHYQADVRLEATEEIYLTPVQRPPDPAEPTSTFMPPTESRMSVSSDPDPAAYSVTAGRPHPSISEEDEGFDCLSSPERAEPPGGGWRGSLGEPPPPPRASLSSDTSALSYDSVKYTLVVDEHAQLELVSLRPCFGDYSDESDSATVYDNCASASSPYESAIGEEYEEAPQPRPPTCLSEDSTPDEPDVHFSKKFLNVFMSGRSRSSSAESFGLFSCVINGEEHEQTHRAIFRFVPRHEDELELEVDDPLLVELQAEDYWYEAYNMRTGARGVFPAYYAIEVTKEPEHMAALAKNSCVLEISVRGVKIGVKADDALEAKGNKCSHFFQLKNISFCGYHPKNNKYFGFITKHPADHRFACHVFVSEDSTKALAESVGRAFQQFYKQFVEYTCPTEDIYLE
What does the source list for B1?
co-immunoprecipitation of JIP-1 with JNK2 (JNK2): observed; binding to p38 MAP kinase (p38 MAP kinase): did not bind; basal transcriptional activity of ATF2 mutated at JNK phosphorylation sites ([1]; GAL4-ATF2 (T69A/T71A), FIG. 4B): not markedly inhibited; JNK-regulated gene expression ([1]; GAL4-ATF2 reporter, CHO cells, FIG. 4C): inhibition; ATF2 transcriptional activity ([1]; wild type GAL4-ATF2, CHO cells, FIG. 4B): Significant inhibition
